The source of these data is patent US20220275047A1 (published 2022).

This test concerns the target T1, MUC5AC peptide on HLA-DPA1*01:03 / HLA-DPB1*04:01 (human).
T1 peptide: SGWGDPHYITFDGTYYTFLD
The experiment in a line: multimer staining.

B1: 05-MUC5AC4922-4941 (TCR, V domains shown)
Valpha: QTVTQSQPEMSVQEAETVTLSCTYDTSESNYYLFWYKQPPSRQMILVIRQEAYKQQNATENRFSVNFQKAAKSFSLKISDSQLGDTAMYFCAFMKRAETSGSRLTFGEGTQLTVNP
Vbeta: NAGVTQTPKFRVLKTGQSMTLLCAQDMNHEYMYWYRQDPGMGLRLIHYSVGEGTTAKGEVPDGYNVSRLKKQNFLLGLESAAPSQTSVYFCASSYWPTRETQYFGPGTRLLVL
Take B1: the binding result is given as “recognises”.
